Test results published in publication PMC7067600 (Nature structural & molecular biology, 2019).

T1: FANCI (isolated) (Gallus gallus, UniProt B0I564 1-1338)
T1 sequence: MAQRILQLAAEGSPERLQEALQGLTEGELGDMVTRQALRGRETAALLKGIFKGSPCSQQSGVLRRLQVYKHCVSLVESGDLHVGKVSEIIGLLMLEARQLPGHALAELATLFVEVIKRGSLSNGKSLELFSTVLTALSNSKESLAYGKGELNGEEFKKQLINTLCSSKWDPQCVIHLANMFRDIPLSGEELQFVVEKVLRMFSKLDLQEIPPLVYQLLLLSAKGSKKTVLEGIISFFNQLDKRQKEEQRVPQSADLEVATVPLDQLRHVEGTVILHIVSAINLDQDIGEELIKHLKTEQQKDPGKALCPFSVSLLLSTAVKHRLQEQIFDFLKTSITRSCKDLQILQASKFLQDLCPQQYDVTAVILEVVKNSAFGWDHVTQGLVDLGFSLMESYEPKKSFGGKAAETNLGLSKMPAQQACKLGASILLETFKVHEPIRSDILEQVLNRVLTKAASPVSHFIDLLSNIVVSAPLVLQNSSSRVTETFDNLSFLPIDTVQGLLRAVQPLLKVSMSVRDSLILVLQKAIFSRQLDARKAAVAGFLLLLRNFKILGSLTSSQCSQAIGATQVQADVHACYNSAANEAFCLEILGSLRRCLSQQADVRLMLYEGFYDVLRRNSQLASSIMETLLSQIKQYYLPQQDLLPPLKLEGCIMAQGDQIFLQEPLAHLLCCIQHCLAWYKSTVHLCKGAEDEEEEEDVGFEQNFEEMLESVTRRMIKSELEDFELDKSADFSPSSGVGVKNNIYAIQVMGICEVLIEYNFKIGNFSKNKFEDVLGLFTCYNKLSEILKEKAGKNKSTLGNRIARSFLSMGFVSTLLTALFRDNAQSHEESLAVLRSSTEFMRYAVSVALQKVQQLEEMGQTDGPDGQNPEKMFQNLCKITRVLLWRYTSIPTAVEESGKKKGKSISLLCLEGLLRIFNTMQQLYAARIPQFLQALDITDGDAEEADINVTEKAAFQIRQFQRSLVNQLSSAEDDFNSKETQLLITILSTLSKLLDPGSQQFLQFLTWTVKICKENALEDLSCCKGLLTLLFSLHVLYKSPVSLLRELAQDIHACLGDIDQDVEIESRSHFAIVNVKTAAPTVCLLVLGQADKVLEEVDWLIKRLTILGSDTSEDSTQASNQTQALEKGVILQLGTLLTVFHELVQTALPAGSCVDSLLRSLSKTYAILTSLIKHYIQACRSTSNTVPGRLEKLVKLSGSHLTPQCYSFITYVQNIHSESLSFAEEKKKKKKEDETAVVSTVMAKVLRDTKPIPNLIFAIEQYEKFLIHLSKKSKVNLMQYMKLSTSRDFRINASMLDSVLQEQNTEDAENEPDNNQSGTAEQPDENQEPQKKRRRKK

B1: 39 bp dsDNA (dsDNA)
DNA 1: ATCGATGTCTCTAGACAGCTGCTCAGGATTGATCTGTAA
DNA 2: TTACAGATCAATCCTGAGCAGCTGTCTAGAGACATCGAT
B2: His-tagged Gallus gallus FANCI (expressed alone) (natural protein, UniProt B0I564 1-1338, looked up)
chain: T1 sequence
B3: 19 bp dsDNA (dsDNA)
DNA 1: ATCGATGTCTCTAGACAGC
DNA 2: GCTGTCTAGAGACATCGAT
B4: 14 bp dsDNA (dsDNA)
DNA 1: ATCGATGTCTCTAG
DNA 2: CTAGAGACATCGAT
B5: StrepII-tagged Gallus gallus FANCD2 (expressed alone) (natural protein, UniProt Q68Y81 1-1439, looked up)
chain: MVSKRKLSKIDAAEESSKTDLQSRCPETKRSRISDKRAPSQGGLENEGVFEELLRTSGIILKVGEGQNEIAVDQTAFQKKLRVALEKHPSYPGVVNEFISGLESHIKDRSQFKNCLLPCTPARTEGSRTLVHSYCESLIKLLLGIKILQPAVVTLLLEKIPEFFFDVVGTFGTNFPRLIVNQFKWLDGLLDSQDLVKKLMQMLSVSPVPIQHDIITSLPEILEDSQQNEVARELSCLLKQGRRLTVPILDALSRLDLDAELLAEVRQSAMTIVPSVKLEDLPVVIKFILHNVKAADAVEVISDLRKSLDLSSCVLPLQLLGSQRKLKSQAQASSSMSQVTTSQNCVKLLFDVIKQAVRFQKDVSEAWIKAIENSTSVSDHKVLDLIVLLLIHSTNSKNRKQTEKVLRSKIRLGCMPEQLMQNAFQNHSMVIKDFFPSILSLAQTFLHSAHPAVVSFGSCMYKQAFAVFDSYCQQEVVCALVTHVCSGNETELDISLDVLTDLVILHPSLLLRYATFVKTILDSMQKLNPCQIRKLFYILSTLAFSQRQEGSYIQDDMHMVIRKWLSSSVPNHKQMGIIGAVTMMGSVALKRNEADGGLLERPELSIECDGQLSTLLDLVGFCCEQTPEVLALYYDELANLIEKQKGNLDLQLLDKFGKSLVEDFPNDFVVDLSPTVDGSFLFPVKSLYNLDEDETQGAIAINLLPLVSQSEPGRVADEMSNSRKRVVSPICLSPCFRLLRLYTGEQNNGSLEEIDALLGCPLYLTDLEVEGKLDSLSKQEREFLCSLLFYALNWFREVVNAFCQQQDAEMKGKVLTRLQNITELQNVLGKCLAATPGYVPPPATFDSEAPEGVPSINAGGPVRKKNGKKRKSDSSKACSAERTQADESSDGNQPDTELSELEKSATEKETGNPLAQLQSYRPYFRELDLEVFSVLHCGLLTKSILDTEMHTEASEVVQLGPAELCFLLDDMCWKLEHVLTPGSTRRVPFLKERGNKDVGFSHLCQRSPKEVAVCVVKLLKPLCNHMENMHNYFQTVIPNQGVVDESGLNIQEYQLMSSCYHQLLLAFRLLFAWSGFSQHENSNLLRSALQVLADRLKPGETEFLPLEELISESFQYLLNFQASIPSFQCAFILTQVLMAISEKPMTGWKREKMASLAKQFLCQSWMKPGGDREKGSHFNSALHTLLCVYLEHTDNILKAIEEISSVGVPELINSAKDGCSSTYPTLSRQTFPVFFRVMMAQLESSVKSIPAGKPSDSGEVQLEKLLKWNIAVRNFHILINLVKVFDSRPVLSICLKYGRLFVEAFLKLAMPLLDHSFKKHRDDVQSLLKTLQLSTRQLHHMCGHSKIHQDLGLTNHVPLLKKSLEQFVYRVKAMLAFNHCQEAFWVGVLKNRDLQGEEILSQASAAPEEDSAEGSEEDTADSAAEEPDGTDSDSGGAGR

Experiments:
[1] = biological target: T1, FANCI (isolated); test: EMSA
[2] = biological target: FANCD2 (isolated) (Gallus gallus, UniProt Q68Y81 1-1439); test: EMSA
[3] = biological target: B5; test: pull-down
[4] = biological target: FANCD2 (in co-expressed D2-I);FANCI (in co-expressed D2-I) (Gallus gallus;Gallus gallus, UniProt Q68Y81;B0I564 1-1439;1-1338, |); test: EMSA
[5] = biological target: the molecule itself; test: SEC

B1: binds [1]; no binding [2].

With B2 the “stoichiometry N” value [3] was ~1 FANCI:FANCD2.

B3: binds [4].

B4: no binding [4].

For B5, the “stoichiometry N” value [5] was 2.
